Ten molecules from patent US20120034160A1 (AbbVie / Abbott, published 2012) can be followed below.

Substitutions are numbered along the chain they refer to.

For assay [1], the target named is Recombinant Human IL-1β (human, UniProt P01584 117-269). The assay is described as follows: cell-based or functional assay.
The target of assay [2] is T1, Recombinant Human IL-17 (human, UniProt Q16552 20-155, limits assumed).
T1 sequence (looked up): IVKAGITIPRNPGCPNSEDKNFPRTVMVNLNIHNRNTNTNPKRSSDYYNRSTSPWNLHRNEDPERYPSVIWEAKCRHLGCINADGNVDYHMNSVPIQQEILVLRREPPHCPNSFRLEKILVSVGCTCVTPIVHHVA
Briefly: cell-based or functional assay.

B1: DVD1589 (bispecific antibody, human IgG1, kappa)
heavy: not shown
light: DIQMTQSPSSLSASVGDRVTITCRASGNIHNYLTWYQQTPGKAPKLLIYNAKTLADGVPSRFSGSGSGTDYTFTISSLQPEDIATYYCQHFWSIPYTFGQGTKLQITRTVAAPSVFIFPPDIQMTQSPSSLSASVGDRVTITCRASSGIISYIDWFQQKPGKAPKRLIYATFDLASGVPSRFSGSGSGTDYTLTISSLQPEDFATYYCRQVGSYPETFGQGTKLEIKRTVAAPSVFIFPPSDEQLKSGTASVVCLLNNFYPREAKVQWKVDNALQSGNSQESVTEQDSKDSTYSLSSTLTLSKADYEKHKVYACEVTHQGLSSPVTKSFNRGEC
As to B1, the “N-Terminal VD IL-1β Neutralization Assay EC50” value in assay [1] came out at 0.0068 nM. In addition, the “C-terminal VD IL-17 Neutralization Assay EC50” value in assay [2] is 0.0011 nM.

B2: DVD1286 (bispecific antibody, human IgG1, kappa)
heavy: not shown
light: DTQVTQSPSSLSASVGDRVTITCITSTDIDVDMNWYQQKPGKPPKLLISQGNTLRPGVPSRFSSSGSGTDFTFTISSLQPEDFATYYCLQSDNLPLTFGQGTKLEIKRTVAAPEIVLTQSPDFQSVTPKEKVTITCRASQNIGSELHWYQQKPDQSPKLLIKYASHSISGVPSRFSGSGSGTDFTLTINGLEAEDAATYYCHQSDTLPHTFGQGTKVDIKRTVAAPSVFIFPPSDEQLKSGTASVVCLLNNFYPREAKVQWKVDNALQSGNSQESVTEQDSKDSTYSLSSTLTLSKADYEKHKVYACEVTHQGLSSPVTKSFNRGEC
As for B2, the “N-Terminal VD IL-1β Neutralization Assay EC50” value in assay [1] worked out at 0.165 nM. The “C-terminal VD IL-17 Neutralization Assay EC50” value in assay [2] amounted to 0.259 nM.

B3: DVD1290 (bispecific antibody, human IgG1, kappa)
heavy: not shown
light: B2 light with D1E, Q3T
For the molecule B3, the “N-Terminal VD IL-1β Neutralization Assay EC50” value in assay [1] came out at 0.252 nM. In assay [2], the “C-terminal VD IL-17 Neutralization Assay EC50” value was found to be 0.0181 nM.

B4: DVD1590 (bispecific antibody, human IgG1, kappa)
heavy: not shown
light: DIQMTQSPSSLSASVGDRVTITCRASSGIISYIDWFQQKPGKAPKRLIYATFDLASGVPSRFSGSGSGTDYTLTISSLQPEDFATYYCRQVGSYPETFGQGTKLEIKRTVAAPSVFIFPPDIQMTQSPSSLSASVGDRVTITCRASGNIHNYLTWYQQTPGKAPKLLIYNAKTLADGVPSRFSGSGSGTDYTFTISSLQPEDIATYYCQHFWSIPYTFGQGTKLQITRTVAAPSVFIFPPSDEQLKSGTASVVCLLNNFYPREAKVQWKVDNALQSGNSQESVTEQDSKDSTYSLSSTLTLSKADYEKHKVYACEVTHQGLSSPVTKSFNRGEC
For the molecule B4, in assay [1], the “C-Terminal VD IL-1β Neutralization Assay EC50” value worked out at 1.6 nM. Further, the “N-terminal VD IL-17 Neutralization Assay EC50” value in assay [2] is 0.0016 nM.

B5: DVD1287 (bispecific antibody, human IgG1, kappa)
heavy: not shown
light: EIVLTQSPDFQSVTPKEKVTITCRASQNIGSELHWYQQKPDQSPKLLIKYASHSISGVPSRFSGSGSGTDFTLTINGLEAEDAATYYCHQSDTLPHTFGQGTKVDIKRTVAAPDTQVTQSPSSLSASVGDRVTITCITSTDIDVDMNWYQQKPGKPPKLLISQGNTLRPGVPSRFSSSGSGTDFTFTISSLQPEDFATYYCLQSDNLPLTFGQGTKLEIKRTVAAPSVFIFPPSDEQLKSGTASVVCLLNNFYPREAKVQWKVDNALQSGNSQESVTEQDSKDSTYSLSSTLTLSKADYEKHKVYACEVTHQGLSSPVTKSFNRGEC
Consider B5, for which the “C-Terminal VD IL-1β Neutralization Assay EC50” value in assay [1] was > 50 nM. Besides, the “N-terminal VD IL-17 Neutralization Assay EC50” value in assay [2] was 0.0035 nM.

B6: DVD1291 (bispecific antibody, human IgG1, kappa)
heavy: not shown
light: B5 light with D114E, Q116T
Consider B6, for which, in assay [1], the “C-Terminal VD IL-1β Neutralization Assay EC50” value is > 100 nM. In assay [2], the “N-terminal VD IL-17 Neutralization Assay EC50” value came out at 0.0062 nM.

B7: DVD1284 (bispecific antibody, human IgG1, kappa)
heavy: not shown
light: DIQMTQSPSSLSASVGDRVTITCRASGNIHNYLTWYQQTPGKAPKLLIYNAKTLADGVPSRFSGSGSGTDYTFTISSLQPEDIATYYCQHFWSIPYTFGQGTKLQITRTVAAPEIVLTQSPDFQSVTPKEKVTITCRASQNIGSELHWYQQKPDQSPKLLIKYASHSISGVPSRFSGSGSGTDFTLTINGLEAEDAATYYCHQSDTLPHTFGQGTKVDIKRTVAAPSVFIFPPSDEQLKSGTASVVCLLNNFYPREAKVQWKVDNALQSGNSQESVTEQDSKDSTYSLSSTLTLSKADYEKHKVYACEVTHQGLSSPVTKSFNRGEC
As to B7, in assay [1], the “N-Terminal VD IL-1β Neutralization Assay EC50” value was determined as 0.0065 nM. The “C-terminal VD IL-17 Neutralization Assay EC50” value in assay [2] is > 20 nM.

B8: DVD1288 (bispecific antibody, human IgG1, kappa)
heavy: not shown
light: DTVVTQSPAFLSVTPGEKVTITCITSTDIDVDMNWYQQKPDQPPKLLISQGNTLRPGVPSRFSSSGSGTDFTFTISSLEAEDAATYYCLQSDNLPLTFGQGTKLEIKRTVAAPEIVLTQSPDFQSVTPKEKVTITCRASQNIGSELHWYQQKPDQSPKLLIKYASHSISGVPSRFSGSGSGTDFTLTINGLEAEDAATYYCHQSDTLPHTFGQGTKVDIKRTVAAPSVFIFPPSDEQLKSGTASVVCLLNNFYPREAKVQWKVDNALQSGNSQESVTEQDSKDSTYSLSSTLTLSKADYEKHKVYACEVTHQGLSSPVTKSFNRGEC
As for B8, the “N-Terminal VD IL-1β Neutralization Assay EC50” value in assay [1] amounted to 0.212 nM. Besides, the “C-terminal VD IL-17 Neutralization Assay EC50” value in assay [2] came to 0.111 nM.

B9: DVD1289 (bispecific antibody, human IgG1, kappa)
heavy: not shown
light: EIVLTQSPDFQSVTPKEKVTITCRASQNIGSELHWYQQKPDQSPKLLIKYASHSISGVPSRFSGSGSGTDFTLTINGLEAEDAATYYCHQSDTLPHTFGQGTKVDIKRTVAAPDTVVTQSPAFLSVTPGEKVTITCITSTDIDVDMNWYQQKPDQPPKLLISQGNTLRPGVPSRFSSSGSGTDFTFTISSLEAEDAATYYCLQSDNLPLTFGQGTKLEIKRTVAAPSVFIFPPSDEQLKSGTASVVCLLNNFYPREAKVQWKVDNALQSGNSQESVTEQDSKDSTYSLSSTLTLSKADYEKHKVYACEVTHQGLSSPVTKSFNRGEC
As to B9, the “C-Terminal VD IL-1β Neutralization Assay EC50” value in assay [1] is 18.8 nM. Moreover, in assay [2], the “N-terminal VD IL-17 Neutralization Assay EC50” value was 0.096 nM.

B10: DVD1285 (bispecific antibody, human IgG1, kappa)
heavy: not shown
light: EIVLTQSPDFQSVTPKEKVTITCRASQNIGSELHWYQQKPDQSPKLLIKYASHSISGVPSRFSGSGSGTDFTLTINGLEAEDAATYYCHQSDTLPHTFGQGTKVDIKRTVAAPDIQMTQSPSSLSASVGDRVTITCRASGNIHNYLTWYQQTPGKAPKLLIYNAKTLADGVPSRFSGSGSGTDYTFTISSLQPEDIATYYCQHFWSIPYTFGQGTKLQITRTVAAPSVFIFPPSDEQLKSGTASVVCLLNNFYPREAKVQWKVDNALQSGNSQESVTEQDSKDSTYSLSSTLTLSKADYEKHKVYACEVTHQGLSSPVTKSFNRGEC
As to B10, the “C-Terminal VD IL-1β Neutralization Assay EC50” value in assay [1] is 1.27 nM. Also, the “N-terminal VD IL-17 Neutralization Assay EC50” value in assay [2] was 0.0021 nM.
